The target in assay [1] is T1, αT-catenin N2-M3 (aa 147–626) (Mus musculus, UniProt Q65CL1 147-626).
T1 construct: αT-catenin, Mus musculus, N2-M3, aa 147-626; in pGEX-TEV; also called αT-catenin N2-M3 (147–626); source: E. coli BL21-Gold, purified (glutathione-agarose, TEV cleavage, Mono Q or Mono S, S200)
T1 sequence (looked up): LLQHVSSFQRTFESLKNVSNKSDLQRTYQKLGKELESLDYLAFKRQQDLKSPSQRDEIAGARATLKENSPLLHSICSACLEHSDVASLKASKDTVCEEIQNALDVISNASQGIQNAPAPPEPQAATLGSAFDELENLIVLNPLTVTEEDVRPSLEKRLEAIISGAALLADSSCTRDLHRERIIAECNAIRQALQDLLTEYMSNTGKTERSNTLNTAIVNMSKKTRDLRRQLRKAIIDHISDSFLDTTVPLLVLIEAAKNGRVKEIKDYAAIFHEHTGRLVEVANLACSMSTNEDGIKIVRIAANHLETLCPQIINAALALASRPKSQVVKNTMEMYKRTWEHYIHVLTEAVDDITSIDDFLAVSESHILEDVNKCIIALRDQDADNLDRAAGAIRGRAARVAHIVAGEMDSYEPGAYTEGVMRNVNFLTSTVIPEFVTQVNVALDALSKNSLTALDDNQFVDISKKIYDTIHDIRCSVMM
Kind of assay: ITC; vinculin D1 injected into αT-catenin or αE-catenin fragment (or αT-catenin head–β-catenin complex) in the cell; 25 °C; 20 mM Hepes pH 8.0, 150 mM NaCl, 1 mM TCEP. The following applies: both partners purified.

Assay [2] concerns the target T2, αT-catenin M1-M3 (aa 260–626) (Mus musculus, UniProt Q65CL1 260-626).
T2 construct: αT-catenin, Mus musculus, M1-M3, aa 260-626; in pGEX-TEV; also called αT-catenin M-region; αT-catenin M1-M3 (260–626); source: E. coli BL21-Gold, purified (glutathione-agarose, TEV cleavage, Mono Q or Mono S, S200)
T2 sequence (looked up): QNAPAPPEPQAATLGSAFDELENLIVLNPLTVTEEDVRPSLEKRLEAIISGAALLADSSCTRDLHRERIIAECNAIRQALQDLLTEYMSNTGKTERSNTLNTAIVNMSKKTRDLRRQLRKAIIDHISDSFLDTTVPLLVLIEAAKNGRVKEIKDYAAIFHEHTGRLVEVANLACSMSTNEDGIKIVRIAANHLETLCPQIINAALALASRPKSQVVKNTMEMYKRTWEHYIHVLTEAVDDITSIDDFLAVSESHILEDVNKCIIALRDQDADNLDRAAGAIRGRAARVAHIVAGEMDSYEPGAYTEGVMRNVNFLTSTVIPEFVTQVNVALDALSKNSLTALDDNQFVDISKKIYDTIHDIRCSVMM
The description is as above. The following applies: both partners purified.

The target in assay [3] is T3, αT-catenin head region (aa 1–659) (Mus musculus, UniProt Q65CL1 1-659).
T3 construct: αT-catenin, Mus musculus, head region (N- and M-domains), aa 1-659; in pGEX-TEV; also called αT-catenin head (1–659); αT-catenin N1-M3 (aa 1–659); source: E. coli BL21-Gold, purified (glutathione-agarose, TEV cleavage, Mono Q or Mono S, S200)
T3 sequence (looked up): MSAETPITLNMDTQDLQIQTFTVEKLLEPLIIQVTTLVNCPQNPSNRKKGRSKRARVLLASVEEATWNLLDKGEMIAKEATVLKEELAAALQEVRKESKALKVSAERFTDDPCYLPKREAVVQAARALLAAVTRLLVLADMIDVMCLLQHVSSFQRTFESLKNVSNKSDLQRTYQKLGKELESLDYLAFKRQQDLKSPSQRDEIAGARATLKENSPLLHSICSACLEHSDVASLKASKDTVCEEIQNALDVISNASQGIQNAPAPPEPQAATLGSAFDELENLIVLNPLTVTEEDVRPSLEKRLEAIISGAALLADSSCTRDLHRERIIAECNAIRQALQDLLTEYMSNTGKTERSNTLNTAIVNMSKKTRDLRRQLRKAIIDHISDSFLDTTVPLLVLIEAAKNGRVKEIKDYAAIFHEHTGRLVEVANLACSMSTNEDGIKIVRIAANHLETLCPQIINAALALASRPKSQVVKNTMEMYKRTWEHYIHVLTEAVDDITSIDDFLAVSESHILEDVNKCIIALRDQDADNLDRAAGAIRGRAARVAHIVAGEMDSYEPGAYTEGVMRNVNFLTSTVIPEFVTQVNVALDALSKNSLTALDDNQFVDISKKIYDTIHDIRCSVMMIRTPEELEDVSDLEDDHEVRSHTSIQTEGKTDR
The description is as above. To be noted: both partners purified.

For assay [4], the target named is T2, αT-catenin M1-M3 (aa 260–626). Kind of assay: ITC; vinculin D1 titrated into an equimolar mixture of αT-catenin N1-N2 and M1-M3; 25 °C; 20 mM Hepes pH 8.0, 150 mM NaCl, 1 mM TCEP. To be noted: both partners purified. For orientation: Isothermal titration calorimetry measures the heat released or taken up as one component is titrated into another.
Assay [5] deals with 2I27–αT-catenin M1-M3 (aa 259–667)-2I27 (UniProt Q65CL1). Kind of assay: ITC; vinculin D1 injected into αT-catenin or αE-catenin fragment (or αT-catenin head–β-catenin complex) in the cell; 25 °C; 20 mM Hepes pH 8.0, 150 mM NaCl, 1 mM TCEP.

B1: vinculin D1 (aa 1–259) (domain or fragment, UniProt P12003 1-259, looked up)
chain: MPVFHTRTIESILEPVAQQISHLVIMHEEGEVDGKAIPDLTAPVSAVQAAVSNLVRVGKETVQTTEDQILKRDMPPAFIKVENACTKLVRAAQMLQADPYSVPARDYLIDGSRGILSGTSDLLLTFDEAEVRKIIRVCKGILEYLTVAEVVETMEDLVTYTKNLGPGMTKMAKMIDERQQELTHQEHRVMLVNSMNTVKELLPVLISAMKIFVTTKNTKSQGIEEALKNRNFTVEKMSAEINEIIRVLQLTSWDEDAWA
notes: vinculin D1 fragment, aa 1-259, the first 2 four-helix bundles; in pGEX-TEV; also called vinculin aa 1 to 259 (D1); vinculin N-terminus; source: E. coli BL21-Gold, purified (glutathione-agarose, TEV cleavage, Mono Q or Mono S, S200)
What is called Kd is a measure of binding affinity in units of concentration. For B1, the Kd in assay [1] is 50.2 ± 40.4 nM; in assay [2], 60.5 ± 19.2 nM; in assay [3], 4690 ± 2740 nM; in assay [4], 50.1 ± 17.5 nM; in assay [5], 245 nM. In addition, the dH in assay [1] is 4 ± 0.1 kcal/mol; in assay [2] it was -2.2 ± 1 kcal/mol; in assay [3], 2.3 ± 1.3 kcal/mol; in assay [4] it was -3.1 ± 0.1 kcal/mol; in assay [5], 4.8 kcal/mol.

The record behind these values is PMC8091058, “Distinct intramolecular interactions regulate autoinhibition of vinculin binding in αT-catenin and αE-catenin” (The Journal of Biological Chemistry, 2021).
